Test results from patent publication CN115772221A (BOAOXIN BIOTECHNOLOGY NANJING CO LTD, dated 2023).

Biological target: T1, 重组人CD47-his蛋白 (ACRO biosystems, cat#CD7-H5227, MW 15.6 kDa) (human, UniProt Q08722 19-139, biotin-labelled in the ELISAs (examples 3.1, 4.1, 4.2); unlabelled in Biacore)
T1 construct: Bought protein; also called 人CD47蛋白; 人CD47-生物素; not shown: His tag
Assay: SPR (Biacore T200), antibody captured by goat anti-mouse IgG, CD47-his in solution

T1 sequence (Q08722 19-139 limits assumed): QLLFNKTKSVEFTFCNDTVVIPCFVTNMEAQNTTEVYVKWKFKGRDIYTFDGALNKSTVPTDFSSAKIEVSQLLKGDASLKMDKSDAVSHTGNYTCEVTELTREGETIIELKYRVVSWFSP

- binding result: binds
B1: 小鼠抗CD47单克隆抗体1D2 (antibody, V domains shown)
VH: EVQLQQSGPELVKPGASVRISCKTSGYKFTDYNIHWVKQSHGKSLEYIGYIYPYNISSAYNQKFKSKATVTVDNSSSTSYMELRSLTSEDSAVYYCARGGWRAMDYWGQGTSVTVSS
VL: AVLMTQSPLSLPVSLGDQASLSCRSSQNIVHTNGYTYLAWYLQRPGQSPKLLIYKVSNRFSGVPDRFSGSGSGTDFTLRISRVEAEDLGVYYCFQGSHVPWTFGGGTKLEIK
notes: Tested as a mouse monoclonal antibody purified from a hybridoma; 1D2 is the only named antibody of the invention; also called 本发明的单克隆抗体1D2; 本发明的抗体1D2
